Measured values: publication PMC4303685
Blank lines part the entries; values can stand above or below the substance they belong to.

Key:
[1] = biological target: recombinant wild-type C3d (E1032) (human) (UniProt P01024); assay: AUC; sedimentation velocity, c(s) analysis (SEDFIT), 50,000 rpm, 20 °C; 10 mM Hepes, 137 mM NaCl, pH 7.4; monomer to dimer, KD estimated from peak integration
[2] = biological target: recombinant wild-type C3d (E1032) (human) (UniProt P01024); assay: AUC; sedimentation velocity, c(s) analysis; PBS in 2H2O (137 mM NaCl, pH 7.4); monomer to dimer, proportions by peak integration
[3] = biological target: complement C3c (human) (UniProt P01024); assay: SPR; Biacore X100, C3c amine-coupled to CM5 chip, C3d as analyte, 25 °C, 30 μl/min, steady state analysis; 10 mM Hepes, 50 mM NaCl, pH 7.4
[4] = biological target: recombinant wild-type C3d (E1032) (human) (UniProt P01024); assay: AUC; sedimentation velocity, c(s) analysis (SEDFIT), 50,000 rpm, 20 °C; 10 mM Hepes, 50 mM NaCl, pH 7.4; monomer to dimer, KD estimated
[5] = biological target: complement C3c (human) (UniProt P01024); assay: AUC; sedimentation velocity, c(s) analysis (SEDFIT), 50,000 rpm, 20 °C; 10 mM Hepes, 137 mM NaCl, pH 7.4; monomer to dimer, KD estimated from peak integration
[6] = biological target: complement C3c (human) (UniProt P01024); assay: AUC; sedimentation velocity, c(s) analysis; PBS in 2H2O (137 mM NaCl, pH 7.4); monomer to dimer, proportions by peak integration
[7] = biological target: complement C3c (human) (UniProt P01024); assay: AUC; sedimentation velocity, c(s) analysis (SEDFIT), 50,000 rpm, 20 °C; 10 mM Hepes, 50 mM NaCl, pH 7.4; monomer to dimer, KD estimated

- dimer, percent of the total [1]: 10%
- stoichiometry N [1]: 2
- dimer proportion [2]: 12%
- stoichiometry N [2]: 2
- Kd [3]: 51 µM
- Kd [4]: 25 µM
- stoichiometry N [4]: 2
Substance: recombinant wild-type C3d (E1032) (from UniProt P01024 996-1287) (domain or fragment)

- Kd [5]: 60 µM
- dimer, percent of the total [5]: 6%
- stoichiometry N [5]: 2
- dimer proportion [6]: 7%
- stoichiometry N [6]: 2
- Kd [7]: 50 µM
- stoichiometry N [7]: 2
Substance: complement C3c (from UniProt P01024 23-667; P01024 749-954; P01024 1321-1663) (domain or fragment)

- fold less binding than wild-type C3d [3]: 10 fold
Substance: mutant C3d (A1032), C3d E1032A (from UniProt P01024 996-1287) (domain or fragment)
